Laboratory results: patent US20240309099A1 (SYSTIMMUNE, published 2024)

B1: SI-1X4 (bispecific antibody)
heavy: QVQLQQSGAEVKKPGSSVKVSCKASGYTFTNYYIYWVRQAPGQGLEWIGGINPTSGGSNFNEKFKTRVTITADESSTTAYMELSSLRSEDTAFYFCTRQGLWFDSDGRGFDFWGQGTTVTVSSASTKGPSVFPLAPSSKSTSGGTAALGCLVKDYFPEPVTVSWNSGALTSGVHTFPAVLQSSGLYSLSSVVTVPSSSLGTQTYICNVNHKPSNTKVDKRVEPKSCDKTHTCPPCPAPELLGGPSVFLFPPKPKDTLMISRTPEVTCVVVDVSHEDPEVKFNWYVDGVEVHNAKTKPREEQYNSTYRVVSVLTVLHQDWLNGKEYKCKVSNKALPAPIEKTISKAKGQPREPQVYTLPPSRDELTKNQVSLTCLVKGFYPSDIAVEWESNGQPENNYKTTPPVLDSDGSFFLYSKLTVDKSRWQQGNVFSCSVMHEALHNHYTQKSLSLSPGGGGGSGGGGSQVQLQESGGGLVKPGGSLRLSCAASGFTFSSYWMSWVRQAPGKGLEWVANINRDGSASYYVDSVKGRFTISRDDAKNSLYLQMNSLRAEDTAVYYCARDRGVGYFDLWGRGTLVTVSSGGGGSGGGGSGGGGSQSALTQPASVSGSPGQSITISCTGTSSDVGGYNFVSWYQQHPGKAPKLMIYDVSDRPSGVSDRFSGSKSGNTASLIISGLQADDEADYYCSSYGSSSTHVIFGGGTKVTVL
light: DIQMTQSPSSLSASVGDRVTITCRSSQNIVHSNGNTYLDWYQQTPGKAPKLLIYKVSNRFSGVPSRFSGSGSGTDFTFTISSLQPEDIATYYCFQYSHVPWTFGQGTKLQITRTVAAPSVFIFPPSDEQLKSGTASVVCLLNNFYPREAKVQWKVDNALQSGNSQESVTEQDSKDSTYSLSSTLTLSKADYEKHKVYACEVTHQGLSSPVTKSFNRGEC
notes: Tetravalent IgG-scFv: anti-EGFR Fab with nimotuzumab variable regions, anti-HER3 scFv at the C-terminus of the heavy chain; also called EGFRxHER3 bispecific antibody; nimotuzumab-based bispecific antibody
B2: SI-1X26 (bispecific antibody)
heavy: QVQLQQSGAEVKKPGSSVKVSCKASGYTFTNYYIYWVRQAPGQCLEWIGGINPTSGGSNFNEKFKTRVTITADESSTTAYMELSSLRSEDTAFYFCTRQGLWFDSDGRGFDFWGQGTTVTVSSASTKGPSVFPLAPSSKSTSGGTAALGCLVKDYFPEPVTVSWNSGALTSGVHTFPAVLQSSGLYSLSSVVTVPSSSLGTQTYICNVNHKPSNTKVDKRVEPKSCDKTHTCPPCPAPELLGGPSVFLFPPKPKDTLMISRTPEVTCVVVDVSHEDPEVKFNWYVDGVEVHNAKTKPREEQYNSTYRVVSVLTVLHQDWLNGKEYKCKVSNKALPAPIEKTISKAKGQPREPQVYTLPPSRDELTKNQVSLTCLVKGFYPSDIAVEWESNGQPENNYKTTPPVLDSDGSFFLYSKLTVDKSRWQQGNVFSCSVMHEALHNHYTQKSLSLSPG
light: DIQMTQSPSSLSASVGDRVTITCRSSQNIVHSNGNTYLDWYQQTPGKAPKLLIYKVSNRFSGVPSRFSGSGSGTDFTFTISSLQPEDIATYYCFQYSHVPWTFGCGTKLQITRTVAAPSVFIFPPSDEQLKSGTASVVCLLNNFYPREAKVQWKVDNALQSGNSQESVTEQDSKDSTYSLSSTLTLSKADYEKHKVYACEVTHQGLSSPVTKSFNRGECGGGGSGGGGSGGGGSQVQLQESGGGLVKPGGSLSLSCAASGFTFSSYWMSWVRQAPGKGLEWVANINRDGSASYYVDSVKGRFTISRDDAKNSLYLQMNSLRAEDTAVYYCARDRGVGYFDLWGRGTLVTVSSGGGGSGGGGSGGGGSQSALTQPASVSGSPGQSITISCTGTSSDVGGYNFVSWYQQHPGKAPKLMIYDVSDRPSGVSDRFSGSKSGNTASLIISGLQADDEADYYCSSYGSSSTHVIFGGGTKVTVL
notes: scFv on the C-terminus of the light chain; also called EGFRxHER3 bispecific antibody; nimotuzumab-based bispecific antibody

How the values were obtained:
[1] = biological target: T1, His-tagged human EGFR (expressed/purified in-house) (human, UniProt P00533 25-645, limits assumed); assay: BLI (Octet384), antibody captured on AHC tips, His-tagged EGFR 0-100 nM in solution, global 1:1 fit
T1 construct: Made in-house; also called ErbB1; HER1; not shown: His tag

[2] = biological target: human HER3 (purchased from Acro Bio) (human, UniProt P21860 20-643); assay: BLI (Octet384), antibody captured on AHC tips, HER3 (Acro Bio) 0-100 nM in solution, global 1:1 fit

Row | Binder | Kd [1] | Response [1] | koff [1] | kon [1] | Kd [2] | Response [2] | koff [2] | kon [2]
1 | B1 | 23.8 nM | 0.171 | 0.00171 s⁻¹ | 71600 M⁻¹ s⁻¹ | 156 nM | 0.264 | 0.0281 s⁻¹ | 180000 M⁻¹ s⁻¹
2 | B2 | 11.4 nM | 0.194 | 0.000627 s⁻¹ | 55100 M⁻¹ s⁻¹ | 151 nM | 0.294 | 0.0308 s⁻¹ | 204000 M⁻¹ s⁻¹
